This note sets out measurements from PMC4872150.

This series deals with nucleolin (UniProt P19338). The series can be described thus: SPR. The following applies: BIAcore 3000, nucleolin on CM5 chip, 10 mM HEPES, 150 mM NaCl, 3 mM EDTA, 0.005% surfactant P20, pH 7.4, 25 °C. A general note: SPR reads the build-up and loss of mass on a sensor chip optically.
Sequence of UniProt P19338 (P19338 whole entry): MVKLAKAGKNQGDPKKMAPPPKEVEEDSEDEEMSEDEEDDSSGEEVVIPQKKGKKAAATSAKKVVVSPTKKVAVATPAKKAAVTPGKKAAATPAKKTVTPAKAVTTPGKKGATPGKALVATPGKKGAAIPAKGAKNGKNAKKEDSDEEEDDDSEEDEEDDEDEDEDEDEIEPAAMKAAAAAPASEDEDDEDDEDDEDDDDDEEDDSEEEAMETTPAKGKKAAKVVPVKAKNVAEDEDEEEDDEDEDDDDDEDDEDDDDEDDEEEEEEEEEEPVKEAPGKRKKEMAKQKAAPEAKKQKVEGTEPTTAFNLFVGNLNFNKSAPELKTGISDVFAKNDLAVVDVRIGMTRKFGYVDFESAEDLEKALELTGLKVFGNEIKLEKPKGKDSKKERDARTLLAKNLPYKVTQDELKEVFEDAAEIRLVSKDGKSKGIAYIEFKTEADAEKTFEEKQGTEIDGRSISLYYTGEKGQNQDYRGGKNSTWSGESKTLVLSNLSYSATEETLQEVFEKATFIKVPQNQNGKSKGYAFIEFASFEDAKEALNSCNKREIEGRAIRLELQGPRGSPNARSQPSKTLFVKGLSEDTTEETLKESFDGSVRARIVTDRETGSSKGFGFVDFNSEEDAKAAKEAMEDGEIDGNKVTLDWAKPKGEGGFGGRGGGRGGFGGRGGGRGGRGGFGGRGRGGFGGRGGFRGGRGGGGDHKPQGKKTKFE

Usually Kd stands for a measure of binding affinity in units of concentration. In turn, GGTGGTGGTGGNTGTGGTGGTGGNGG [FAN-1224dI] yielded a dissociation constant Kd (N = 2'-deoxyinosine at positions 12 and 24 (replacing T)) of 32.2 nM.
In the case of GGTGGTGGTGGTNGTGGTGGTGGNGG [FAN-1324dI], the dissociation constant (Kd) (N = 2'-deoxyinosine at positions 13 and 24 (replacing T)) turned out to be 30.9 nM.
The sequence GGTGGTGGTGGTTGNGGTGGTGGNGG [FAN-1524dI] showed an equilibrium dissociation constant (Kd) (N = 2'-deoxyinosine at positions 15 and 24 (replacing T)) of 37 nM.
For the sequence GGTGGTGGTGGTTGTGGTGGTGGTGG [AS1411], the Kd is 169 nM.
